{
  "source": "patent US20250161419A1",
  "about": "“SERPIN PEPTIDES AND METHODS OF USING THE SAME” (SERPIN PHARMA, LLC, priority 2022, published 2025)",
  "key": {"[1]": {"tested_on": "capsaicin induced acute pain-related behavior in mice", "test": "Intraplantar capsaicin model of acute nociception", "format": "in vivo, mouse", "details": "male mice; SP163M 2 μg/g s.c. or EI-tPA 2 μg/g i.v. 1 h before capsaicin", "description": "For the capsaicin studies, male (n=41) and female (n=37) mice were acclimated to the behavior testing facility for at least 1 h. Capsaicin was dissolved in 20% (2-hydroxypropyl)-β-cyclodextrin (Sigma-Aldrich, St. Louis, MO, USA) solution. […] Subsequently, 10 μl of 2 μg/μl capsaicin solution was injected into the plantar area of left hind paw. Immediately after capsaicin injection, mice were placed in a plexiglass box. Two observers, blinded to treatments, recorded the time spent licking and flinching the left hind paw over 10 min."}, "phospho-ERK1/2": {"tested_on": "phospho-ERK1/2", "test": "Cell signaling analysis in PC12 cells, immunoblot of phospho-ERK1/2", "format": "cell-based, rat", "details": "48 h after transfection", "description": "Cell signaling analysis: Rat PC12 cells were purchased from ATCC (CRL-1721). PC12 cells were maintained in high glucose DMEM (Gibco, USA) containing 10% heat-inactivated FBS (Gibco, USA), 5% HyClone heat-inactivated horse serum (Cytiva, USA), penicillin (100 units/ml) and streptomycin ([…]) in 6-well plates that were pre-coated with 0.01 mg/ml type IV collagen (Sigma-Aldrich, St. Louis, MO, USA). Cells were transferred to serum-free medium (SFM) 4 h prior to adding effectors, and then treated with SP163M (2.4, 24 or 240 nM); EI-tPA (12 nM), NGF (0.36 nM), or vehicle (PBS) for 10 min. In some cases, cells were pre-incubated with the competitive antagonist of LRP1, GST-RAP (150 nM) for 15 min or electroporated using the Rat Neuron Nucleofector Amaxa Kit (Lonza Biosciences) and incubated with siRNA to silence LRP1 expression (siLRP1; M-094191-01-0010, Dharmacon) for 48 h. Control cells were transfected with non-targeting control (NTC) siRNA (NTC; D-001810-10-05, Dharmacon). […] Equal amounts of protein from cell lysates (20 μg), as determined by BCA Protein Assay (ThermoFisher Scientific, Waltham, MA, USA), were subjected to 10% SDS-PAGE and electro-transferred to nitrocellulose membranes. […]"}},
  "data": [
    {"molecule": "EI-tPA: Recombinant human enzymatically inactive tissue-type plasminogen activator, known LRP1 agonist (protein) SYQVICRDEKTQMIYQQHQSWLRPVLRSNRVEYCWCNSGRAQCHSVPVKSCSEPRCFNGGTCQQALYFSDFVCQCPEGFAGKCCEIDTRATCYEDQGISYRGTWSTAESGAECTNWNSSALAQKPYSGRRPDAIRLGLGNHNYCRNPDRDSKPWCYVFKAGKYSSEFCSTPACSEGNSDCYFGNGSAYRGTHSLTESGASCLPWNSMILIGKVYTAQNPSAQALGLGKHNYCRNPDGDAKPWCHVLKNRRLTWEYCDVPSCSTCGLRQYSQPQFRIKGGLFADIASHPWQAAIFAKHRRSPGERFLCGGILISSCWILSAAHCFQERFPPHHLTVILGRTYRVVPGEEEQKFEVEKYIVHKEFDDDTYDNDIALLQLKSDSSRCAQESSVVRTVCLPPADLQLPDWTECELSGYGKHEALSPFYSERLKEAHVRLYPSSRCTSQHLLNRTVTDNMLCAGDTRSGGPQANLHDACQGDSGGPLVCLNDGRMTLVGIISWGLGCGQKDVPGVYTKVTNYLDWIRDNMRP", "values": [
      {"measurement": "capsaicin induced acute pain-related behavior (time spent licking over 10 min)", "setting": "[1]", "value": "blocked the capsaicin induced acute pain-related behavior"},
      {"measurement": "activation of ERK1/2 in cells transfected with LRP1-specific siRNA", "setting": "phospho-ERK1/2", "value": "ERK1/2 was not activated"},
      {"measurement": "activation of ERK1/2 in cells transfected with NTC siRNA", "setting": "phospho-ERK1/2", "value": "robustly activated ERK1/2"}
    ]}
  ]
}
